# Test results taken from US9096835B2, “DNA polymerase” (Medical Research Council, priority 2003, dated 2015).
# B1: 3D1: third round clone, four mismatch extension; SEQ ID NO: 98 (protein)
# chain: MAMLPLFEPKGRVLLVDGHHLAYRTFFALKGPTTSRGEPVQVVYGFAKSLLKALKEDGYKAVFVVFDAKAPSFRHKAYEAYRAGRAPTPEDFPRQLALIKELVDLLGFTRLEVPGYEADDVLATLAKKAEKEGYEVRILTADRGLYQLVSDRVAVLHPEGHLITPEWLWEKYGLRPEQWVDFRALVGDPSDNLPGVKGIGEKTALKLLKEWGSLENLLKNLDRVKPENVREKIKAHLEDLRLSLELSRVRTDLPLEVDLAQRREPDREGLRAFLERLEFGSLFHEFGLLESPKALEEAPWPPPEGAFVGFVLSRKEPMWADLLALAAARGGRVHRAPEPYKALRDLKEARGLLAKDLSVLALREGLGLPPGDDPMLLAYLLDPSNTTPEGVARRYGGEWTEEAGERAALSERLFANLWGRLEGEERLLWLYREVERPLSAVLAHMEATGVRLDVAYLRALSLEVAEEIARLEAEVFRLAGHPFNLNSRDQLEMVLFDELRLPALGKTQKTGKRSTSAAVLEALREAHPIVEKILQYRELTKLKSTYIDPLSDLIHPRTGRLHTRFNQTATATGRLSSSDPNLQNIPVRTPLGQRIRRAFIAEEGWLLVVLDYSQIELRVLAHLSGDENLIRVFQEGRDIHTETASWMFGVPREAVDPLMRRAAKTINFGVLYGMSAHRLSQELAIPYEEAQAFIERYFQSFPKVRAWIEKTLEEGRRRGYVETLFGRRRYVPDLEARVKSVREAAERMAFNMPVQGTAADLMKLAMVKLFPRLGETGARMLLQVHDELVLEAPKERAEAVARLAKEAMEGVYPLAVPLEVEVGIGEDWLSAKG
# modifications: Mutant Taq polymerase
# B2: 3A10: third round clone, abasic site bypass; SEQ ID NO: 86 (protein)
# chain: MAMLPLFEPKGRVLLVDGHHLAYRTFFALKGLTTSRGEPVQVVYGFAKSLLKALKEDGYKAVFVVFDAKAPSFRHKAYEAYRAGRAPTPQDFPRQLALIKELVDLLGFTRLEVPGYEADDVLATLAKKAEKEGYEVRILTADRGLYQLVSDRVAVLHPEGHLITPEWLWEKYGLRPEQWVDFRALVGDPSDNLPGVKGIGEKTALKLLKEWGSLENLLKNLDRVKPENVREKIKAHLEDLRLSLELSRVRTDLPLEVDLAQGREPDREGLRAFLERLEFGSLLHEFGLLESPKALEEAPWPPPEGAFVGFVLSRKEPMWADLLALAAARGGRVHQAPEPYKALRDLKEARGLLAKDLSVLALREGLGLPPGDDPMLLAYLLDPSNTTPEGVARRYGGEWTEEAGERAALSERLFANLWGRLEGEERLLWLYREVERPLSAVLAHMETTGVRLDVAYLRALSLEVAEEIARLEAEVFRLAGRPFNLNSRDQLERVLFDELGLPAIGKTEKTGKRSTSAAVLEALREAHPIVEKILQYRELTKLKSTYIDPLPDLIHPRTGRLHTRFNQTATATGRLSSSDPNLQNIPVRTPLGQRIRRAFIAEEGWLLVVLDYSQMELRVLAHLSGDENLIRVFQEGKDIHTQTASWMFGVPPEAVDPLMRRAAKTVNFGVLYGMSAHRLSQELSIPYEEAVAFIERYFQSFPKVRAWIEKTLEEGRRRGYVETLFGRRRYVPDLNARMKSVRGAAERMAFNMPVQGTAADLMKLAMVKLFPRLREMGARMLLQVHDELLLEAPQARAEEVAALAKEAMEKAYPLAVPLEVEVGIGEDWLSAKE
# modifications: Mutant Taq polymerase
# B3: M1: Taq mutant G84A, D144G, K314R, E520G, F598L, A608V, E742G; SEQ ID NO: 1 (protein)
# chain: MRGMLPLFEPKGRVLLVDGHHLAYRTFHALKGLTTSRGEPVQAVYGFAKSLLKALKEDGDAVIVVFDAKAPSFRHEAYGGYKAARAPTPEDFPRQLALIKELVDLLGLARLEVPGYEADDVLASLAKKAEKEGYEVRILTADKGLYQLLSDRIHVLHPEGYLITPAWLWEKYGLRPDQWADYRALTGDESDNLPGVKGIGEKTARKLLEEWGSLEALLKNLDRLKPAIREKILAHMDDLKLSWDLAKVRTDLPLEVDFAKRREPDRERLRAFLERLEFGSLLHEFGLLESPKALEEAPWPPPEGAFVGFVLSRREPMWADLLALAAAAGGRVHRAPEPYKALRDLKEARGLLAKDLSVLALREGLGLPPGDDPMLLAYLLDPSNTTPEGVARRYGGEWTEEAGERAALSERLFANLWGRLEGEERLLWLYREVERPLSAVLAHMEATGVRLDVAYLRALSLEVAEEIARLEAEVFRLAGHPFNLNSRDQLERVLFDELGLPAIGKTEKTGKRSTSAAVLGALREAHPIVEKILQYRELTKLKSTYIDPLPDLIHPRTGRLHTRFNQTATATGRLSSSDPNLQNIPVRTPLGQRIRRAFIAEEGWLLVVLDYSQIELRVLAHLSGDENLIRVFQEGRDIHTETASWMFGVPREAVDPLMRRAAKTINFGVLYGMSAHRLSQELAIPYEEAQAFIERYFQSFPKVRAWIEKTLEEGRRRGYVETLFGRRRYVPDLEARVKSVRGAAERMAFNMPVQGTAADLMKLAMVKLFPRLEEMGARMLLQVHDELVLEAPKERAEAVARLAKEVMEGVYPLAVPLEVEVGIGEDWLSAKE
# modifications: Mutant Thermus aquaticus DNA polymerase
# Assays:
# Assay type in all cases: biochemical
# PCR with Biotin-16-dUTP = conditions: 50 cycle PCR, complete replacement
# Description: (§1) A PCR assay was used to screen and rank clones. Briefly, clones were normalized for activity in PCR with matched primers 3, 4 and activity with mismatched primers 1 and 2 (1 μM each) determined at minimal cycle number (15-25 cycles). Extension capability for different mismatches was determined by the same assay using mismatch primers 2 (C•C mismatch), 5 (A•A mismatch), 6 (G•G mismatch), 7 (G•A mismatch) with matched primer 3 or primer 1 (A•G mismatch) with matched primer 4. Incorporation of unnatural substrates in 50 cycle PCR was carried out using standard conditions and 50 μM […] dNTPs (Promega) or 50 μM FITC-12-dATP (Perkin-Elmer), Rhodamine-5-dUTP (Perkin-Elmer) or Biotin-16-dUTP (Roche) with equivalent amounts of the other 3 dNTPs (all 50 μM). Long PCR was carried out using a two-step cycling protocol as described (22) 94° C. for 2 minutes, followed by 20 cycles of (94° C. 15 sec, 68° C. 30 min) using 5 ng of phage λ DNA (New England Biolabs) template and either primers 9, 10, 11 with primer 12 or primer 13 with primers 10, 14.
# [1] = PCR with dATP replaced by FITC-12-dATP; conditions: 50 cycle PCR, dATP completely replaced
# Description: as §1
# four mismatch primers = assay: PCR screen of clones with four mismatch primers; conditions: 292 base pair product, 50 cycles of PCR
# Description: The resultant clones from both CSR and CST were screened and ranked by PCR assay. Briefly, 2 μl of induced cells were added to 20 μl of PCR mix with the relevant 4 mismatch primers. Clones that produced a band were then subjected to further analysis and their activity on single, double and quadruple mismatch primers (single mismatch primers: 5′-CAGGAAACAGCTATGACAAAAATCTAGATAACGAGGGA-3′ (SEQ ID NO: 48) and 5′-GTAAAACGACGGCCAGTACCACCGAACTGCGGGTGACGCCAAGCC 3′ (SEQ ID NO: 49); double mismatch primers: CAGGAAACAGCTATGACTCGACAAAAATCTAGATAACGACC (SEQ ID NO: 50) and GTAAAACGACGGCCAGTTTATTAACCACCGAACTGC (SEQ ID NO: 51); four mismatch primers above.) was investigated. Polymerases that could extend all of these mismatches were found, though many polymerases could do only one of the mismatches and […].
# The best first and second round clones were shuffled as described above and subjected to another round of CSR. The same two sets of mismatch primers with four mismatches at their 3′ end were used in the emulsion as two separate sources of selective pressure. This was then dealt with as above and the resultant clones were screened and ranked by PCR assay (as above). Once again, polymerases that could extend all of these mismatches were found. In particular, clones 3B5.
# [2] = test system: primers with an abasic site seven bases from their 3′ end; assay: Abasic site bypass in PCR; conditions: 176 bp product, 20 cycles of PCR
# Description: FIG. 10. A list of polymerases selected to extend four mismatches were assayed for their ability to extend abasic sites in PCR. Primers with an abasic site seven bases from their 3′ end were designed. Such primers will prevent exponential amplification of the target sequence, restricting it to […] amplification, unless the abasic site is bypassed. […] (A) Screen which identified clone A10. (B) A further 4 polymerases that display good abasic site bypass. Lane M: markers, Hae III digest of Φ X174.
# A list of polymerases selected to extend four mismatches were assayed for their ability to extend abasic sites in PCR (FIG. 10).
molecule,measurement,setting,value
wtTaq: Thermus aquaticus (Taq) wild type DNA polymerase [reference compound],PCR amplification with Biotin-16-dUTP,PCR with Biotin-16-dUTP,unable to generate any amplification products
same,PCR amplification with FITC-12-dATP,[1],unable to generate any amplification products
B1,extension of primers containing four mismatches in PCR,four mismatch primers,able to extend primers containing four mismatches
same,extension of primers containing four mismatches in PCR,four mismatch primers; listed as D1,can also extend four mismatched primers in PCR
same,amplification product in PCR with abasic site primers,[2],produced an amplification product
B2,extension of primers containing four mismatches in PCR,four mismatch primers,cannot
same,amplification product in PCR with abasic site primers,[2],produced an amplification product
B3,size of amplification products fully labelled with Biotin-16-dUTP,PCR with Biotin-16-dUTP,2.7 kb
same,size of amplification product fully labelled with FITC-12-dATP,[1],0.4 kb
